13 molecules from patent publication US20180334496A1 (KODIAK SCIENCES, published 2018) can be followed below.

Read-outs that look alike come from different tables or passages of the source.

Test [1] concerns the target T1, recombinant human CFD mutant 1 (R157A, R207A), His-tagged (human, UniProt P00746 26-253).
T1 construct: positions are linear positions in the mature protein; also called rhCFD-mut1-His; Mut1
Kind of test: ELISA.

Test [2] addresses T2, human complement factor D purified from serum (human, UniProt P00746 26-253).
T2 construct: serum-purified (CompTech); also called hCFD-Comptech; CFD
Kind of test: SPR MX96.

Test [3] concerns the target T3, recombinant cynomolgus CFD, His-tagged (cynomolgus).
T3 construct: also called rcyCFD-His; recombinant Cyno-CFD
Kind of test: SPR MX96.

Test [4] deals with T4, recombinant human CFD, His-tagged (human, UniProt P00746 26-253).
T4 construct: also called rhCFD-His
Briefly: SPR MX96.

In test [5] the target is T1, recombinant human CFD mutant 1 (R157A, …). Briefly: SPR MX96.
Test [6] addresses T2, human complement factor D purified from ….
For test [7] the target is unchanged. Kind of test: cell-based or functional assay.
Test [8] addresses T1, recombinant human CFD mutant 1 (R157A, …). Briefly: ELISA. This is another data set of the same source.
In test [9] the target is T2, human complement factor D purified from …. The source holds these as a separate data set.
Test [10] shares this target. Kind of test: cell-based or functional assay. This is another data set of the same source.

T2 sequence (P00746 26-253): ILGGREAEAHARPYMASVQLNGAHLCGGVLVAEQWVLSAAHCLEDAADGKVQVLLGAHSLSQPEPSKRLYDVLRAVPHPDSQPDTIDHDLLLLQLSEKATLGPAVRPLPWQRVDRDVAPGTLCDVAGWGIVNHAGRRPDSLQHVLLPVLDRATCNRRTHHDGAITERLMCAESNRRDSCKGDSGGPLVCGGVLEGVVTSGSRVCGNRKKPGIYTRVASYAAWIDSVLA
T4 sequence (P00746 26-253 limits assumed): as the sequence (P00746 26-253) above
T1 sequence (P00746 26-253 R182A/R232A limits assumed): as the sequence (P00746 26-253) above, with R157A, R207A counted along it

B1: KCD224 (antibody, V domains shown)
VH: QVQLKESGPGLVAPSQSLSITCTVSGFSLTSYGVDWIRQSPGKGLEWLGVIWGVGSTNYNSALKSRLSISKDNSKSQVFLKMNSLQTDDTAMYYCARSYDGSYWYFDVWGTGTTVTVSS
VL: DIQMTQTTSSLSASLGDRVTISCRASQVISNYLNWYQQKPDGTVKLLIYYTSRLHSGVPSRFSGSGSGTDYSLTISNLEPEDIATYYCQQYSKLPYTFGSGTKLEIK
notes: chimeric
As a reminder, the Kd is the concentration at which binding is half-saturated. Take B1: the “Mut1 Binding (% wt)” value in [1] worked out at 121 % wt. Further, the equilibrium dissociation constant (Kd) in test [2] was determined as 1.2 nM; in test [3], 100 nM; in test [4], 0.54 nM; in test [5], 1.1 nM; in [6] it was 0.0156 nM. Further, the “CFD Enzymatic activity (% of Neg Ctrl)” value in test [7] is 36.3 % of Neg Ctrl.

B2: KCD102 (antibody, V domains shown)
VH: QVQLQQPGAELVRPGTSVKLSCKASGYTFTSYWMHWVKQRPGQGLEWIGVIDPSDSYTNYNQKFKGKATLTVDTSSSTAYMQLSSLTSEDSAVYYCARNGYDGSMDYWGQGTSVTVSS
VL: EIQMTQTTSSLSASLGDRVTISCRASQDISNYLNWYQQKPDGTVKLLIYYPSRLHSGVPSRFSGSGSGTDYSLTISNLEQEDFATYFCQQGNTLPYTFGGGTKLEIK
notes: chimeric
B2: in test [8], the “Mut1 Binding (% wt)” value came out at 64.3 % wt. Moreover, the Kd in test [2] came out at 3.6 nM; in test [3], 230 nM; in test [4], 2.5 nM; in [5], 2.5 nM; in test [9], 6.98 nM. Also, the “CFD Enzymatic activity (% of Neg Ctrl)” value in test [10] is 92.3 % of Neg Ctrl.

B3: KCD104 (antibody, V domains shown)
VH: QVQLQQPGAELVRPGTSVKLSCKASGYTFTSYWMHWVKQRPGQGLEWIGVIDPSDSYTYYNQKFKGKATLTVDTSSSTAYMQLSSLTSEDSAVYYCARNGYDGAMDYWGQGTSVTVSS
VL: EIQMTQTTSSLSASLGDRVTISCRASQDISNYLNWYQQKPDGTVKLLIYYPSRLHSGVPSRFSGSGSGTDYSLTISNLEQEDFATYFCQQGNTLPYTFGGGTKLEIK
notes: chimeric
On to B3, for which, in test [8], the “Mut1 Binding (% wt)” value came out at 68.3 % wt. Besides, the Kd came out at 1.6 nM in test [2]; 72 nM in test [3]; 1.2 nM in [4]; 0.82 nM in test [5]; 1.32 nM in test [9]. In [10], the “CFD Enzymatic activity (% of Neg Ctrl)” value is 92.3 % of Neg Ctrl.

B4: KCD103 (antibody, V domains shown)
VH: QVQLQQPGAELVRPGTSVKLSCKASGYTFTSYWMHWVKQRPGQGLEWIGVIDPSDSYTKYNQKFKDKATLTVETSSSTAYMQLSSLTSEDSAVYYCAGNGYDGSMDYWGQGTSVTVSS
VL: DIQMTQTTSSLSASLGDRVTISCRASQDISNSLNWYQQKPDGTVKLLIYYTSRLHSRVPSRFSGSGSGTDYSLTISNLDQEDIATYFCQQANTLPYTFGGGTKLEIK
notes: chimeric
Take B4: the “Mut1 Binding (% wt)” value in test [8] amounted to 65.2 % wt. The dissociation constant Kd in [2] stood at 4.4 nM; in test [3], 63 nM; in [4], 3.1 nM; in test [5], 2.5 nM; in test [9], 1.48 nM. The “CFD Enzymatic activity (% of Neg Ctrl)” value in [10] was 126 % of Neg Ctrl.

B5: KCD101 (antibody, V domains shown)
VH: QVQLQQPGAELVRPGTSVKLSCKASGYTFTSYWMHWVKQRPGQGLEWIGVIDPSDSYTNYNQKFKGKATLTVDTSSSTAYMQLSSLTSEDSAVYYCGRNGYDGSMDYWGQGTSVTVSS
VL: DIQMTQTTSSLSASLGDRVTISCRASQDISNYLNWYQQKPDGTVKLLIYYPSRLHSGVPSRFSGSGSGTDYSLTISNLEQEDFATYFCQQGNTLPYTFGGGTKLEIK
notes: chimeric
B5: the “Mut1 Binding (% wt)” value in test [8] is 65.8 % wt. Further, the Kd is 3.8 nM in test [2]; 240 nM in [3]; 2.7 nM in [4]; 2.8 nM in test [5]; 1.45 nM in [9]. In addition, the “CFD Enzymatic activity (% of Neg Ctrl)” value in [10] was 93.2 % of Neg Ctrl.

B6: KCD002 (antibody, V domains shown)
VH: EVKLVESEGGLVQPGSSMKLSCTASGFTFSDYYMAWVRQVPEKGLEWVGNINYDGSSTYYLDSLKSRFIISRDSAKNILYLQMSSLKSEDTATYFCARGEDFYLYAMDYWGQGTSVTVSS
VL: DIQMTQSPASLSASVGETVTITCRASENIHSYLAWYQQKQGKSPQLIVYNTKTLAEGVPSRFSGSGSGTQFSLKINSLQPEDFGSYYCQHHYGIPPTFGGGTKLEIK
notes: chimeric
As for B6, the “Mut1 Binding (% wt)” value in [8] was determined as 71.2 % wt. The dissociation constant Kd was 0.13 nM in test [2]; 0.41 nM in [3]; 0.11 nM in [4]; 0.08 nM in [5]; 0.0307 nM in test [9]. Also, the “CFD Enzymatic activity (% of Neg Ctrl)” value in test [10] is 144 % of Neg Ctrl.

B7: KCD208 (antibody, V domains shown)
VH: EVQLQQSVAELVRPGASVKLSCTVSGFNIKNTYMHWVKQRPEQGLEWIGRIDPANGDTTYAPKFQGKATITADTSSNSAYLHLSRLTSEDTAIYYCSLYDYDGYWGQGTTLTVSS
VL: EIVLTQSPALMAASPGEKVTITCSVSSSISSSSLHWYRQKSGTSPKPWIYGTSHLASGVPVRFSGSGSGTSYSLTISSMEAEDAATYYCQQWDTYPWTFGGGTKLEIK
notes: chimeric
As to B7, the “Mut1 Binding (% wt)” value in [1] stood at 56.7 % wt. In addition, the dissociation constant Kd amounted to 2.5 nM in [2]; 52 nM in test [3]; 1.9 nM in test [4]; 1.8 nM in [5]; 0.451 nM in [6]. The “CFD Enzymatic activity (% of Neg Ctrl)” value in [7] is 0 % of Neg Ctrl.

B8: KCD214 (antibody, V domains shown)
VH: EVQLQQSVAEFVRPGASVKLSCTASGFNIKNTYMHWVKQRPEQGLEWIGRIDPANGNTEYAPKFQGKATITADTSSNTAYLQLSSLTSEDTAIYYCALYDYDGYWGQGTTLTVSS
VL: EIVLTQSPALMAASPGEKVTITCRVSSSISSSSLHWYQQKSGTSPKPWIYGTSNLASGVPVRFSGSRSGTSYSLTISSMEAEDAATYYCQQWSDYPWTFGGGTKLEIK
notes: chimeric
Turning to B8, the “Mut1 Binding (% wt)” value in [1] came to 44.3 % wt. For the same molecule, the Kd in test [2] was 1.6 nM; in [3], 26 nM; in test [4], 1.1 nM; in test [5] it was 1.3 nM; in [6], 0.245 nM. For the same molecule, the “CFD Enzymatic activity (% of Neg Ctrl)” value in test [7] is 12.8 % of Neg Ctrl.

B9: KCD042 (antibody, V domains shown)
VH: EVQLQQSGAELVKPGASVRLSCTASGFNIKHTYIHWVSQRPEQGLEWIGKIDPANGNTKYDPKFQGKATITADTSSNTAYLQLSSLTSEDTAVYYCVNAMEYWGQGTSVTVSS
VL: QSVLTQSPAIMSASPGEKVTMTCSANSSVSDMYWFQQRPGSSPRLLIYDTSNLASGVPVRFSGSGSGTSYSLTISRMEAEDAATYYCQQWSTYPWTFGGGTKLEIK
notes: chimeric
B9: in test [1], the “Mut1 Binding (% wt)” value worked out at 65.6 % wt. In addition, the Kd in test [2] came to 1.4 nM; in [3], 3 nM; in [4], 1 nM; in [5] it was 0.42 nM; in [6], 1.09 nM. The “CFD Enzymatic activity (% of Neg Ctrl)” value in test [7] was 6.8 % of Neg Ctrl.

B10: KCD136 (antibody, V domains shown)
VH: EVQLQQSVAELVRPGASVKLSCSASGFNIKNTYMHWVNQRPEQGLEWIGRIDPANGITKYAPNFQGKATITADTSSNTAYLQLSNLTSEDTAIYYCTRAMDYWGQGTSVTVSS
VL: QIVLTQSPAIMSASPGEKVTMTCSASSSVSYMYWYQQKPGSSPRLLIYDISNLASGVPVRFSGSGSGTSYSLTISRMEAEDAATYYCQQWDTYPWTFGGGTKLEIK
notes: chimeric
In the case of B10, the “Mut1 Binding (% wt)” value in test [1] was found to be 78.3 % wt. In addition, the Kd is 4.5 nM in [2]; 27 nM in test [3]; 3.4 nM in test [4]; 1.4 nM in test [5]; 0.587 nM in [6]. For the same molecule, the “CFD Enzymatic activity (% of Neg Ctrl)” value in [7] was 11.8 % of Neg Ctrl.

B11: KCD040 (antibody, V domains shown)
VH: EVQLQQSGAELVKPGASVKLSCTASDFNIKDTYMHWVMQRPEQGLEWIGKIDPANGNTEFDPKFQGKATITADTSSNTAYLQLTSLTSEDTAVYYCTRAMDYWGQGTSVTVSS
VL: QIVLTQSPAIMSASPGEKVTMTCSAGSSVSYMYWYQQKPGSSPRVLIYDTSNLASGVPVRFSGSGSGTSYSLTISRMEAEDAATYYCQQWSNYPYTFGGGTKLEIK
notes: chimeric
Take B11: the “Mut1 Binding (% wt)” value in [1] was 62.2 % wt. Besides, the equilibrium dissociation constant (Kd) in test [2] was 1.9 nM; in test [3] it was 170 nM; in [4] it was 1.4 nM; in [5] it was 0.75 nM; in test [6], 79.1 nM. In test [7], the “CFD Enzymatic activity (% of Neg Ctrl)” value was 13.7 % of Neg Ctrl.

B12: KCD047 (antibody, V domains shown)
VH: EVQLQQSGAEFVKPGASVRLSCTASGFNIKDTYMHWVKQRPEQGLEWIGRIDPANGYTKDDPKFQGKATITADTSSNTAYLQLSSLTSEDTAVYYCASAMDYWGQGTSVTVSS
VL: QIVLTQSPAVMSASPGEKVAMTCSASSSVTYMYWYQQKPGSSPRLLIYDTSNLASGVPVRFSGSGSGTSYSLTISRMEAEDAATYYCQQWSTYPFPFGSGTKLEIK
notes: chimeric
For the molecule B12, in [1], the “Mut1 Binding (% wt)” value amounted to 58.9 % wt. Moreover, the dissociation constant (Kd) in test [2] came out at 4.4 nM; in [3], 160 nM; in [4] it was 3.4 nM; in test [5], 2.9 nM; in test [6] it was 6.62 nM. Also, the “CFD Enzymatic activity (% of Neg Ctrl)” value in [7] was 47.3 % of Neg Ctrl.

B13: KCD044 (antibody, V domains shown)
VH: EVQLQQSGAELVKPGASVRLSCTASGFNIKHTYMHWVSQRPERGLEWIGKIDPANGNTKYDPKFQGKATITADTSSNTVYLQLSSLTSEDTAVYYCLNAMEYWGQGTSVTVSS
VL: QSVLTQSPAIMSASPGEKVTMTCSANSSVSDMYWYQQRPGSSPRLLIYDTSNLASGVPVRFSGSGSGTSYSLTISRMEAEDAATYYCQQWSTYPWTFGGGTKLEIK
notes: chimeric
Regarding B13, the “Mut1 Binding (% wt)” value in test [1] came to 62.5 % wt. In addition, the Kd in [2] stood at 2.6 nM; in test [3], 6 nM; in test [4], 1.8 nM; in [5] it was 0.96 nM; in test [6], 1.02 nM. The “CFD Enzymatic activity (% of Neg Ctrl)” value in [7] was 8.8 % of Neg Ctrl.
